{
  "source": "paper PMC11542179",
  "about": "“Unraveling the Bivalent and Rapid Interactions Between a Multivalent RNA Recognition Motif and RNA: A Kinetic Approach”",
  "key": {"[1]": {"target": "T1, MSI1 RRM2 (Homo sapiens, UniProt O43347 104-200)", "T1 sequence (O43347 104-200)": "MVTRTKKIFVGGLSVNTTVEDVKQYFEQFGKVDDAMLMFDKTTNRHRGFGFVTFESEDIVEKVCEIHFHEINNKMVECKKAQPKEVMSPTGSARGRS", "assay": "SPR; 1:1 with mass transport; SPR, 3'-biotinylated RNA immobilized on dextran sensor chip, protein as analyte; running buffer, salt, pH and temperature not in the material", "details": "protein: recombinant, tags: C-terminal Strep-tag, label: 3'-biotin"}, "[2]": {"target": "T2, MSI1 RRM1 (Homo sapiens, UniProt O43347 1-103)", "T2 sequence (O43347 1-103)": "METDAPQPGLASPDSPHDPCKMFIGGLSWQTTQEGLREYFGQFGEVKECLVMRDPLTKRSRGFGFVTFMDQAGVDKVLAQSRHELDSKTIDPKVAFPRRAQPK", "assay": "SPR; 1:1 with mass transport; SPR, 3'-biotinylated RNA immobilized on dextran sensor chip, protein as analyte; running buffer, salt, pH and temperature not in the material", "details": "protein: recombinant, tags: N-terminal Strep-tag, label: 3'-biotin"}, "[3]": {"target": "T3, MSI1 RRM1-RRM2 tandem (Homo sapiens, UniProt O43347 1-200)", "T3 sequence (O43347 1-200)": "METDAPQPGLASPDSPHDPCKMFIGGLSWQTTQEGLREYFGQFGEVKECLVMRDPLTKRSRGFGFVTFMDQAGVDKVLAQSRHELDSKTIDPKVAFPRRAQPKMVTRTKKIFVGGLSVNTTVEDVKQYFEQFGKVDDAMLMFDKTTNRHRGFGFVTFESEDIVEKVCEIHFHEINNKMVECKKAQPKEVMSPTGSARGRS", "assay": "SPR; KD1, bivalent analyte model; SPR, 3'-biotinylated RNA immobilized on dextran sensor chip, protein as analyte; running buffer, salt, pH and temperature not in the material", "details": "protein: recombinant, label: 3'-biotin"}, "[4]": {"target": "T3, MSI1 RRM1-RRM2 tandem", "assay": "SPR; KD1 monovalent step, new model; SPR, 3'-biotinylated RNA immobilized on dextran sensor chip, protein as analyte; running buffer, salt, pH and temperature not in the material", "details": "protein: recombinant, label: 3'-biotin"}, "[5]": {"target": "T3, MSI1 RRM1-RRM2 tandem", "assay": "SPR; 1:1 model (poor fit); SPR, 3'-biotinylated RNA immobilized on dextran sensor chip, protein as analyte; running buffer, salt, pH and temperature not in the material", "details": "protein: recombinant; label: 3'-biotin; linear, single UAG motif"}, "[6]": {"target": "T3, MSI1 RRM1-RRM2 tandem", "assay": "SPR; KD1, induced fit model; SPR, 3'-biotinylated RNA immobilized on dextran sensor chip, protein as analyte; running buffer, salt, pH and temperature not in the material", "details": "protein: recombinant; label: 3'-biotin; linear, single UAG motif"}, "[7]": {"target": "T3, MSI1 RRM1-RRM2 tandem", "assay": "SPR; KD1 monovalent step, new rapid 2:1 model; SPR, 3'-biotinylated RNA immobilized on dextran sensor chip, protein as analyte; running buffer, salt, pH and temperature not in the material", "details": "protein: recombinant; label: 3'-biotin; linear, single UAG motif"}, "[8]": {"target": "T3, MSI1 RRM1-RRM2 tandem", "assay": "SPR; KD1, bivalent analyte model (Table 3 prints 41); SPR, 3'-biotinylated RNA immobilized on dextran sensor chip, protein as analyte; running buffer, salt, pH and temperature not in the material", "details": "protein: recombinant; label: 3'-biotin; linear, single UAG motif"}, "[9]": {"target": "T1, MSI1 RRM2", "assay": "SPR; 1.9-500 nM; SPR, 3'-biotinylated RNA immobilized on dextran sensor chip, protein as analyte; running buffer, salt, pH and temperature not in the material", "details": "protein: recombinant; tags: C-terminal Strep-tag; label: 3'-biotin"}, "[10]": {"target": "T2, MSI1 RRM1", "assay": "SPR; 1.9-500 nM; SPR, 3'-biotinylated RNA immobilized on dextran sensor chip, protein as analyte; running buffer, salt, pH and temperature not in the material", "details": "protein: recombinant; tags: N-terminal Strep-tag; label: 3'-biotin"}, "[11]": {"target": "T3, MSI1 RRM1-RRM2 tandem", "assay": "SPR; 7.8-250 nM; SPR, 3'-biotinylated RNA immobilized on dextran sensor chip, protein as analyte; running buffer, salt, pH and temperature not in the material", "details": "protein: recombinant; label: 3'-biotin"}},
  "data": [
    {"binder": "UUGUCAGUUACCCCUU (ssRNA)", "note": "[RNA-L1a]", "values": [
      {"measurement": "Kd", "setting": "[1]; linear", "result": 123, "unit": "nM"},
      {"measurement": "Kd", "setting": "[2]; linear", "result": 151, "unit": "nM"},
      {"measurement": "Kd", "setting": "[3]; linear", "result": 1410, "unit": "nM"},
      {"measurement": "Kd", "setting": "[4]; linear", "result": 1170, "unit": "nM"}
    ]},
    {"binder": "AAGCGUUAGUUAUUUAGUCGCUU (structured_RNA)", "note": "[RNA-HP2a]", "values": [
      {"measurement": "Kd", "setting": "[1]; potential hairpin", "result": 37, "unit": "nM"},
      {"measurement": "Kd", "setting": "[2]; potential hairpin", "result": 22, "unit": "nM"},
      {"measurement": "Kd", "setting": "[3]; potential hairpin", "result": 45, "unit": "nM"},
      {"measurement": "Kd", "setting": "[4]; potential hairpin", "result": 77, "unit": "nM"}
    ]},
    {"binder": "UUGUUAGUUACCCCUU (ssRNA)", "note": "[RNA-L1]", "values": [
      {"measurement": "Kd", "setting": "[5]", "result": 2, "unit": "nM"},
      {"measurement": "Kd", "setting": "[6]", "result": 24, "unit": "nM"},
      {"measurement": "Kd", "setting": "[1]; linear, single UAG motif", "result": 25, "unit": "nM"},
      {"measurement": "Kd", "setting": "[2]; linear, single UAG motif", "result": 47, "unit": "nM"},
      {"measurement": "Kd", "setting": "[7]", "result": 58, "unit": "nM"},
      {"measurement": "Kd", "setting": "[8]", "result": 42, "unit": "nM"}
    ]},
    {"binder": "CGGCGCCGC (ssRNA)", "note": "[RNA C]", "values": [
      {"measurement": "binding result", "setting": "[9]", "result": "no binding"},
      {"measurement": "binding result", "setting": "[10]", "result": "no binding"},
      {"measurement": "binding result", "setting": "[11]", "result": "no binding"}
    ]},
    {"binder": "CACUCUGUAGUAUGUAGGGUUUAUUU (structured_RNA)", "note": "[RNA-HP2b]", "values": [
      {"measurement": "Kd", "setting": "[1]; potential hairpin", "result": 26, "unit": "nM"},
      {"measurement": "Kd", "setting": "[2]; potential hairpin", "result": 33, "unit": "nM"},
      {"measurement": "Kd", "setting": "[3]; potential hairpin", "result": 144, "unit": "nM"},
      {"measurement": "Kd", "setting": "[4]; potential hairpin", "result": 49, "unit": "nM"}
    ]}
  ]
}
